To fix the notation:
B2: C-reactive protein (CRP) (ligand, human, UniProt P02741 19-224, looked up)
chain: QTDMSRKAFVFPKESDTSYVSLKAPLTKPLKAFTVCLHFYTELSSTRGYSIFSYATKRQDNEILIFWSKDIGYSFTVGGSEILFEVPEVTVAPVHICTSWESASGIVEFWVDGKPRVRKSLKKGYTVGAEASIILGQEQDSFGGNFEGSQSLVGDIGNVNMWDFVLSPDEINTIYLGGPFSPNVLNWRALKYEVQGEVFTKPQLWP
notes: In the SPR assay CRP was captured on PC-KLH immobilised on a CM5 chip; also called hCRP; PTX1

In assay [1] the target is T1, serum amyloid P (SAP) (human, UniProt P02743 20-223).
T1 construct: Pentamer of five non-covalently associated protomers; also called hSAP; human serum amyloid protein P
Nature of the assay: SPR (Biacore X100), SAP on CM5 chip, soluble receptor flowed. An excerpt: (§1) Surface plasmon resonance technology detects and quantifies binding and dissociation events between two proteins through a change in mass at the surface of a chip that is detected as a change in surface plasmon resonance. For these studies we used a Biacore X100 instrument.
(§2) SAP was bound to the surface of the test flow cell of a chip and a soluble recombinant form of Fcγ receptor (sFcγR) was flowed across the surface of the chip, representing the contact or binding phase. Buffer was then flowed across the chip surface, representing the dissociation phase. Change in mass at the cell surface with respect to time, detected as a change in surface plasmon resonance units (RUs) with time, was represented by a graph called a sensorgram. Binding of SAP to the CM5 dextran surface of a Biacore CM5 chip was performed in the presence of 10 mM Hepes, 150 mM NaCl, 0.5 mM CaCl₂, pH 7.4 as running buffer. Binding of SAP was stabilized by a very short immobilization using amine coupling (Biacore reagents) which covalently linked a limited representation of amine-group-containing amino acids on SAP to groups on the chip surface activated with 1-ethyl-3-(3-dimethylaminopropyl)carbodiimide and N-hydroxysuccinimide. A negative control flow cell was prepared using the same amine coupling procedure to immobilize human serum albumin to the same level as SAP. […]
For orientation: Surface plasmon resonance follows binding to a sensor surface in real time, without labels.

Assay [2] deals with T2, soluble recombinant FcγRI (sFcγRI) (UniProt P12314 16-292).
T2 construct: extracellular domain; also called FcγR1; not shown: C-terminal poly-histidine tail of 6-10 histidines
Nature of the assay: SPR steady-state plot of Req against FcγRI concentration (early association phase data); CRP captured via PC-KLH on CM5 chip; vertical line marks the KD estimate. As to the method: (§3) Similar methods were used to evaluate binding interactions between CRP and sFcγRs, and details were the same except where stated here. Binding of CRP to Biacore CM5 chips was achieved through capture via PC-KLH (phosphocholine-keyhole limpet hemocyanin conjugate). Briefly, PC-KLH was immobilized onto a CM5 chip through amine coupling onto the chip surface activated with 1-ethyl-3-(3-dimethylaminopropyl)carbodiimide and N-hydroxysuccinimide. A negative control flow cell was prepared using the same amine coupling to immobilize human serum albumin to the same level as the PC-KLH. Binding of CRP to the PC moiety of PC-KLH immobilized on the CM5 chip was achieved by contacting the surface of the CM5 chip with the CRP in 10 mM Hepes, 150 mM NaCl, 0.5 mM CaCl₂, pH 7.4, to achieve the desired amount of bound CRP. We established that binding was specific for the PC moiety in PC-KLH, since no binding to KLH immobilized to the same level was evident when this was attempted on a different flow cell using the same conditions and the same 10 mM Hepes, 150 mM NaCl, 0.5 mM CaCl₂, pH 7.4, as running buffer. Binding of CRP to PC-KLH was stabilized by a very short immobilization using amine coupling. […]

For assay [3], the target named is B2. Nature of the assay: SPR steady-state plot of Req against FcγRIIIB concentration (early association phase data); CRP captured via PC-KLH on CM5 chip; dotted vertical line marks the KD estimate, beyond the highest concentration tested (3e-6 M). On the procedure:
as §3

The target of assay [4] is T1, serum amyloid P (SAP). Kind of assay: SPR (Biacore X100), SAP on CM5 chip, soluble receptor flowed, single cycle kinetics, KD = Kd/Ka.
Source text: as §1, §2

Among the data in patent US20090202520A1 (PROMEDIOR, published 2009) are binding result and Kd values, retold here.

T1 sequence (P02743 20-223): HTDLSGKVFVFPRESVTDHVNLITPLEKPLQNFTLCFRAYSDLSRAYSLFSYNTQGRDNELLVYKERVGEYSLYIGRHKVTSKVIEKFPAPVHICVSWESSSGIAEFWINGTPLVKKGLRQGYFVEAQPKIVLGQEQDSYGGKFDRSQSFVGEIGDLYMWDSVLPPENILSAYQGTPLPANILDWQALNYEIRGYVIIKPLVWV
T2 sequence (P12314 16-292): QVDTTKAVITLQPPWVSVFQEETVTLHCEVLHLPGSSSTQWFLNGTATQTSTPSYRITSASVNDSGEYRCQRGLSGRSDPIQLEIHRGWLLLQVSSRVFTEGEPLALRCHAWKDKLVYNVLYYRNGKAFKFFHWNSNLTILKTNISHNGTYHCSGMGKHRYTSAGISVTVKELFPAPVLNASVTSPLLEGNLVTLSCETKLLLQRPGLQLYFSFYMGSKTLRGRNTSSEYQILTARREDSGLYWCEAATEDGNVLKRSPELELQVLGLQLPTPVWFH

B1: soluble recombinant FcγRIIB (receptor, UniProt P31994 43-217, looked up)
chain: TPAAPPKAVLKLEPQWINVLQEDSVTLTCRGTHSPESDSIQWFHNGNLIPTHTQPSYRFKANNNDSGEYTCQTGQTSLSDPVHLTVLSEWLVLQTPHLEFQEGETIVLRCHSWKDKPLVKVTFFQNGKSKKFSRSDPNFSIPQANHSHSGDYHCTGNIGYTLYSSKPVTITVQAP
notes: extracellular domain; not shown: C-terminal poly-histidine tail of 6-10 histidines
Take B1: the binding result in assay [1] is “no binding”.

As a reminder, the Kd is the constant that tells how readily two partners part at equilibrium. In the case of B2, the Kd in assay [2] was approximately 1450 nM.

B3: soluble recombinant FcγRIIIB (sFcγRIIIB) (receptor, UniProt O75015 17-200, looked up)
chain: GMRTEDLPKAVVFLEPQWYSVLEKDSVTLKCQGAYSPEDNSTQWFHNENLISSQASSYFIDAATVNDSGEYRCQTNLSTLSDPVQLEVHIGWLLLQAPRWVFKEEDPIHLRCHSWKNTALHKVTYLQNGKDRKYFHHNSDFHIPKATLKDSGSYFCRGLVGSKNVSSETVNITITQGLAVSTIS
notes: as for B1
Regarding B3, the Kd in assay [3] was approximately 15600 nM.

B4: soluble recombinant FcγRIIA (H131 variant) (receptor)
chain: QAAPPKAVLKLEPPWINVLQEDSVTLTCQGARSPESDSIQWFHNGNLIPTHTQPSYRFKANNNDSGEYTCQTGQTSLSDPVHLTVLSEWLVLQTPHLEFQEGETIMLRCHSWKDKPLVKVTFFQNGKSQKFSHLDPTFSIPQANHSHSGDYHCTGNIGYTLFSSKPVTITVQVPSMGSSSPMG
notes: also called FcγR2A; not shown: C-terminal poly-histidine tail of 6-10 histidines
As for B4, in assay [4], the Kd came out at 0.17 nM.
